The assay addresses SHG-labeled wildtype NiV G ectodomain (Nipah virus) (UniProt Q9IH62). Description: second harmonic generation (SHG).

For the substance “ephrinB2-229 (10881-HCCH, SinoBiological Inc.) (domain or fragment)”, the ΔSHG is -15.9%.

Values taken from paper PMC5626764.
